B1: IPO7 (protein, UniProt O95373 1-1038, looked up)
Importin-7: MDPNTIIEALRGTMDPALREAAERQLNEAHKSLNFVSTLLQITMSEQLDLPVRQAGVIYLKNMITQYWPDRETAPGDISPYTIPEEDRHCIRENIVEAIIHSPELIRVQLTTCIHHIIKHDYPSRWTAIVDKIGFYLQSDNSACWLGILLCLYQLVKNYEYKKPEERSPLVAAMQHFLPVLKDRFIQLLSDQSDQSVLIQKQIFKIFYALVQYTLPLELINQQNLTEWIEILKTVVNRDVPNETLQVEEDDRPELPWWKCKKWALHILARLFERYGSPGNVSKEYNEFAEVFLKAFAVGVQQVLLKVLYQYKEKQYMAPRVLQQTLNYINQGVSHALTWKNLKPHIQGIIQDVIFPLMCYTDADEELWQEDPYEYIRMKFDVFEDFISPTTAAQTLLFTACSKRKEVLQKTMGFCYQILTEPNADPRKKDGALHMIGSLAEILLKKKIYKDQMEYMLQNHVFPLFSSELGYMRARACWVLHYFCEVKFKSDQNLQTALELTRRCLIDDREMPVKVEAAIALQVLISNQEKAKEYITPFIRPVMQALLHIIRETENDDLTNVIQKMICEYSEEVTPIAVEMTQHLAMTFNQVIQTGPDEEGSDDKAVTAMGILNTIDTLLSVVEDHKEITQQLEGICLQVIGTVLQQHVLEFYEEIFSLAHSLTCQQVSPQMWQLLPLVFEVFQQDGFDYFTDMMPLLHNYVTVDTDTLLSDTKYLEMIYSMCKKVLTGVAGEDAECHAAKLLEVIILQCKGRGIDQCIPLFVEAALERLTREVKTSELRTMCLQVAIAALYYNPHLLLNTLENLRFPNNVEPVTNHFITQWLNDVDCFLGLHDRKMCVLGLCALIDMEQIPQVLNQVSGQILPAFILLFNGLKRAYACHAEHENDSDDDDEAEDDDETEELGSDEDDIDEDGQEYLEILAKQAGEDGDDEDWEEDDAEETALEGYSTIIDDEDNPVDEYQIFKAIFQTIQNRNPVWYQALTHGLNEEQRKQLQDIATLADQRRAAHESKMIEKHGGYKFSAPVVPSSFNFGGPAPGMN
B2: IARS (protein, UniProt P41252 1-1262, looked up)
Isoleucine--tRNA ligase, …: MLQQVPENINFPAEEEKILEFWTEFNCFQECLKQSKHKPKFTFYDGPPFATGLPHYGHILAGTIKDIVTRYAHQSGFHVDRRFGWDCHGLPVEYEIDKTLGIRGPEDVAKMGITEYNNQCRAIVMRYSAEWKSTVSRLGRWIDFDNDYKTLYPQFMESVWWVFKQLYDKGLVYRGVKVMPFSTACNTPLSNFESHQNYKDVQDPSVFVTFPLEEDETVSLVAWTTTPWTLPSNLAVCVNPEMQYVKIKDVARGRLLILMEARLSALYKLESDYEILERFPGAYLKGKKYRPLFDYFLKCKENGAFTVLVDNYVKEEEGTGVVHQAPYFGAEDYRVCMDFNIIRKDSLPVCPVDASGCFTTEVTDFAGQYVKDADKSIIRTLKEQGRLLVATTFTHSYPFCWRSDTPLIYKAVPSWFVRVENMVDQLLRNNDLCYWVPELVREKRFGNWLKDARDWTISRNRYWGTPIPLWVSDDFEEVVCIGSVAELEELSGAKISDLHRESVDHLTIPSRCGKGSLHRISEVFDCWFESGSMPYAQVHYPFENKREFEDAFPADFIAEGIDQTRGWFYTLLVLATALFGQPPFKNVIVNGLVLASDGQKMSKRKKNYPDPVSIIQKYGADALRLYLINSPVVRAENLRFKEEGVRDVLKDVLLPWYNAYRFLIQNVLRLQKEEEIEFLYNENTVRESPNITDRWILSFMQSLIGFFETEMAAYRLYTVVPRLVKFVDILTNWYVRMNRRRLKGENGMEDCVMALETLFSVLLSLCRLMAPYTPFLTELMYQNLKVLIDPVSVQDKDTLSIHYLMLPRVREELIDKKTESAVSQMQSVIELGRVIRDRKTIPIKYPLKEIVVIHQDPEALKDIKSLEKYIIEELNVRKVTLSTDKNKYGIRLRAEPDHMVLGKRLKGAFKAVMTSIKQLSSEELEQFQKTGTIVVEGHELHDEDIRLMYTFDQATGGTAQFEAHSDAQALVLLDVTPDQSMVDEGMAREVINRIQKLRKKCNLVPTDEITVYYKAKSEGTYLNSVIESHTEFIFTTIKAPLKPYPVSPSDKVLIQEKTQLKGSELEITLTRGSSLPGPACAYVNLNICANGSEQGGVLLLENPKGDNRLDLLKLKSVVTSIFGVKNTELAVFHDETEIQNQTDLLSLSGKTLCVTAGSAPSLINSSSTLLCQYINLQLLNAKPQECLMGTVGTLLLENPLGQNGLTHQGLLYEAAKVFGLRSRKLKLFLNETQTQEITEDIPVKTLNMKTVYVSVLPTTADF
B3: LAMB3 (protein, UniProt Q13751 18-1172, looked up)
Laminin subunit beta-3: QQACSRGACYPPVGDLLVGRTRFLRASSTCGLTKPETYCTQYGEWQMKCCKCDSRQPHNYYSHRVENVASSSGPMRWWQSQNDVNPVSLQLDLDRRFQLQEVMMEFQGPMPAGMLIERSSDFGKTWRVYQYLAADCTSTFPRVRQGRPQSWQDVRCQSLPQRPNARLNGGKVQLNLMDLVSGIPATQSQKIQEVGEITNLRVNFTRLAPVPQRGYHPPSAYYAVSQLRLQGSCFCHGHADRCAPKPGASAGPSTAVQVHDVCVCQHNTAGPNCERCAPFYNNRPWRPAEGQDAHECQRCDCNGHSETCHFDPAVFAASQGAYGGVCDNCRDHTEGKNCERCQLHYFRNRRPGASIQETCISCECDPDGAVPGAPCDPVTGQCVCKEHVQGERCDLCKPGFTGLTYANPQGCHRCDCNILGSRRDMPCDEESGRCLCLPNVVGPKCDQCAPYHWKLASGQGCEPCACDPHNSLSPQCNQFTGQCPCREGFGGLMCSAAAIRQCPDRTYGDVATGCRACDCDFRGTEGPGCDKASGRCLCRPGLTGPRCDQCQRGYCNRYPVCVACHPCFQTYDADLREQALRFGRLRNATASLWSGPGLEDRGLASRILDAKSKIEQIRAVLSSPAVTEQEVAQVASAILSLRRTLQGLQLDLPLEEETLSLPRDLESLDRSFNGLLTMYQRKREQFEKISSADPSGAFRMLSTAYEQSAQAAQQVSDSSRLLDQLRDSRREAERLVRQAGGGGGTGSPKLVALRLEMSSLPDLTPTFNKLCGNSRQMACTPISCPGELCPQDNGTACGSRCRGVLPRAGGAFLMAGQVAEQLRGFNAQLQRTRQMIRAAEESASQIQSSAQRLETQVSASRSQMEEDVRRTRLLIQQVRDFLTDPDTDAATIQEVSEAVLALWLPTDSATVLQKMNEIQAIAARLPNVDLVLSQTKQDIARARRLQAEAEEARSRAHAVEGQVEDVVGNLRQGTVALQEAQDTMQGTSRSLRLIQDRVAEVQQVLRPAEKLVTSMTKQLGDFWTRMEELRHQARQQGAEAVQAQQLAEGASEQALSAQEGFERIKQKYAELKDRLGQSSMLGEQGARIQSVKTEAEELFGETMEMMDRMKDMELELLRGSQAIMLRSADLTGLEKRVEQIRDHINGRVLYYATCK
B4: RRP15 (protein, UniProt Q9Y3B9 2-282, looked up)
RRP15-like protein: AAAAPDSRVSEEENLKKTPKKKMKMVTGAVASVLEDEATDTSDSEGSCGSEKDHFYSDDDAIEADSEGDAEPCDKENENDGESSVGTNMGWADAMAKVLNKKTPESKPTILVKNKKLEKEKEKLKQERLEKIKQRDKRLEWEMMCRVKPDVVQDKETERNLQRIATRGVVQLFNAVQKHQKNVDEKVKEAGSSMRKRAKLISTVSKKDFISVLRGMDGSTNETASSRKKPKAKQTEVKSEEGPGWTILRDDFMMGASMKDWDKESDGPDDSRPESASDSDT

Test system: GFP-14-3-3β and its binding proteins
Assay: GFP-14-3-3β co-IP with LC-MS/MS label-free quantification, untreated versus PP1c-treated
Design: species or system human
Settings: GFP-14-3-3β co-IP LC-MS/MS; PP1 vs untreated; student's t-test; label-free quantification, 3 replicates each

Question: With B1 as the molecule, how does the “Difference (log2), PP1 vs untreated” value read?
Answer: -0.3489 log2

Question: Which “Difference (log2), PP1 vs untreated” value does the source give for B2 here?
Answer: -0.336 log2

Question: For B3, which “Difference (log2), PP1 vs untreated” value is on record?
Answer: -0.3598 log2

Question: For B4, which “Difference (log2), PP1 vs untreated” value is on record?
Answer: -0.3533 log2

Test system: GFP-14-3-3β
Assay: GFP-14-3-3β co-IP with LC-MS/MS, untreated GFP-14-3-3β versus GFP control (14-3-3 interactome)
Format: binding, human
Settings: GFP-14-3-3β co-IP LC-MS/MS; untreated vs GFP; student's t-test; label-free quantification, 3 replicates each

Question: With B1 as the molecule, how does the “Difference (log2), untreated vs GFP” value read?
Answer: 0.3162 log2

Question: With B2 as the molecule, how does the “Difference (log2), untreated vs GFP” value read?
Answer: -0.1582 log2

Question: B3 was tested. Which “Difference (log2), untreated vs GFP” value did it give?
Answer: 0.9719 log2

Question: B4 was tested. Which “Difference (log2), untreated vs GFP” value did it give?
Answer: 0.6496 log2
